Biological target: A. fumigatus FKBP12(V91C) (Aspergillus fumigatus)
Experiment: cross-linking; disulfide trapping through the single cysteine V91C; protein purified from C41(DE3) and SHuffle cells without reducing agent; nonreducing SDS-PAGE

**Q.** A. fumigatus FKBP12(V91C) (enzyme) was tested. Which stoichiometry N did it give?
**A.** 2
